Data from patent US12085574B2, “Method and means for diagnosing and treating allergy” (BIOMEDICAL INTERNATIONAL R+D GMBH, priority 2014, dated 2024).

B1: apoBetv1: recombinant Bet v 1a birch allergen, used as purchased, without siderophore-iron (protein, UniProt P15494 2-160, looked up)
Major pollen allergen Bet v …: GVFNYETETTSVIPAARLFKAFILDGDNLFPKVAPQAISSVENIEGNGGPGTIKKISFPEGFPFKYVKDRVDEVDHTNFKYNYSVIEGGPIGDTLEKISNEIKIVATPDGGSILKISNKYHTKGDHEVKAEQVKASKEMGETLLRAVESYLLAHSDAYN
B2: holoBetv1: recombinant Bet v 1a incubated with equimolar iron and three-fold molar catechol (protein, UniProt P15494 2-160, looked up)
Major pollen allergen Bet v …: B1 Major pollen allergen Bet v …
modifications: iron and catechol complex
notes: recombinant Bet v 1a incubated with equimolar iron and three-fold molar catechol
B3: apo-Alt a 1: recombinant Alternaria alternata allergen Alt a 1, dialyzed against DFO, iron-free (protein, UniProt P79085 19-157, looked up)
Major allergen Alt a 1: APLESRQDTASCPVTTEGDYVWKISEFYGRKPEGTYYNSLGFNIKATNGGTLDFTCSAQADKLEDHKWYSCGENSFMDFSFDSDRSGLLLKQKVSDDITYVATATLPNYCRAGGNGPKDFVCQGVADAYITLVTLPKSS
B4: holo-Alt a 1: recombinant Alt a 1 incubated with equimolar iron and three-fold molar catechol (protein, UniProt P79085 19-157, looked up)
Major allergen Alt a 1: B3 Major allergen Alt a 1
modifications: iron and catechol bound
notes: recombinant Alt a 1 incubated with equimolar iron and three-fold molar catechol

Assays:
[1] = Iron-binding capacity of lipocalin allergens (quenching of autofluorescence); details: 2 μM allergen, 50UM siderophore (2,3, Dihydroxybenzoic Acid), iron III 0 to 50 μM; excitation/emission 280 and 340
Description: In this assay, 2 μM of allergen (in the example BLG) and 50UM of siderophores like 2,3, Dihydroxybenzoic Acid are incubated with increasing concentrations of iron III (Fe3+) ranging from 0 to 50 μM (x-axis in FIG. 5). Quenching of autofluorescence is measured at excitation and emission wavelengths of […] respectively in endpoint mode (y-axis in FIG. 5).

[2] = test system: CD3+ cells of PMA-activated PBMCs; test: CD4/CD8 expression and survival of PMA-activated PBMCs incubated with apo- or holo-lipocalin allergens (FACS); format: cell-based, human; details: PBMCs pre-activated 24 h with PMA 0.75 ng/ml; allergen 100 μg/ml; holo = with catechol and iron; gated for CD3, 10000 CD3 cells recorded
Description: Cells were then stained for CD3-APC, CD8-PE, CD4-PE-CY7, 7AAD and Annexin V-FITC, gated for CD3 and analyzed by a FACS Canto II. Data acquisition was stopped when 10000 CD3 cells were recorded.
Apo-allergens were incubated with equimolar concentration of iron (ammonium iron (III) citrate, Sigma) and three-fold molar concentration of catechol, since 3 catechols are necessary for hexadental binding of iron in the LCN2-pocket against deionized water. Recombinant Bet v1a (Biomay, Vienna, Austria) was used as purchased
Blood was mixed with equal volumes of PBS containing 2% FCS before applying onto 10 ml Ficoll-Paque PLUS (GE Healthcare, Uppsala, Sweden), centrifugation at 400 g for 30 min without brake and washing the cells twice with 0,89% sodium chloride solution. Cells were then diluted to a concentration of 1Mio cells/ml in RPMI medium containing 10% FCS. Throughout the study FCS from the same lot was always used.
To PBMCs (0.5 Mio/test) a final concentration of 0.75 ng/ml PMA, 100 μg/ml apo-allergen (BLG, Alt a 1 and Bet v 1) with or without 10 μM catechol (Sigma) and 10 μM iron was added. For control purposes also tested without allergen or PMA. PMA each substance was determined in pre-experiments and considered concentration was optimal when cells were slightly downregulating surface CD4+ expression (7). […]

PMA-activated PBMCs = test: Cytokine content (IL13, IFN-γ) of supernatants of PMA-activated PBMCs stimulated with apo-/holo-allergens (ELISA); format: cell-based, human; details: PMA-activated PBMCs incubated for 18-24h; allergen 100 μg/ml with or without 10 μM catechol and 10 μM iron
Description: To PBMCs (0.5 Mio/test) a final concentration of 0.75 ng/ml PMA, 100 μg/ml apo-allergen (BLG, Alt a 1 and Bet v 1) with or without 10 μM catechol (Sigma) and 10 μM iron was added. For control purposes also tested without allergen or PMA. PMA each substance was determined in pre-experiments and considered concentration was optimal when cells were slightly downregulating surface CD4+ expression (7). After 18-24h supernatants were collected and stored at −80° ° C. until further analysis.
LCN2 and the cytokine levels of IL13 and IFNγ were detected with commercially available kits according to the manufacturers' protocol. Sera were diluted 1:100 before determining LCN2-levels, whereas supernatants of 18-24h stimulation were used undiluted. Sensitivity of LCN2 assay is about 75 pg/ml and kits were purchased from R&D Systems (Minneapolis, MN, USA), whereas ELISAs for human IL13 and IFNγ were from ebioscience (Santa Clara, CA, USA), both assays having a reported sensitivity of 4 pg/ml.

Row | Molecule | Autofluorescence of the cavity (iron-binding) [1] | CD4 expression and survival [2] | Th2-cytokines released upon stimulation (IL13 and IFN-γ analyzed) (PMA-activated PBMCs)
1 | BLG: commercially available bovine beta-lactoglobulin, lipocalin allergen | quenched |  | 
2 | B1 |  | increase | released
3 | B2 |  | sharp contrast | not
4 | B3 |  |  | released
5 | B4 |  |  | not
